Assay [1] addresses S453P C-terminal peptide (CTP), His6-tagged, released from the chain by trypsin cleavage of S453P proaerolysin (Aeromonas hydrophila). Nature of the assay: pull-down; proaerolysin processed with trypsin agarose beads at pH 8, incubated with His-bind resin preloaded with nickel (held by the His6 tag of the CTP), 4°C, 30 min, extensively washed; SDS-PAGE and Coomassie staining.
For assay [2] the target is unchanged. The experiment in a line: SPR; His-tagged proaerolysin bound to nickel charged NTA sensor chip via the His tag at the C-terminus of the CTP; trypsin added and release of the mature toxin followed; apparent Koff, by the authors only comparative. (In SPR one partner is held on a chip, and binding of the other changes the refractive index at the surface.)

Here are results for 1 substance from paper PMC3136475.

The koff is the rate constant with which the complex falls apart. As to “aerolysin (mature toxin obtained by trypsin cleavage of proaerolysin) (from UniProt P09167 24-445) (natural protein)”, the percent of the total aerolysin in the unbound fraction (released from the bead-bound CTP) in assay [1] worked out at 40%. In addition, the koff in assay [2] is 0.026 s⁻¹.
